Measured values reported in the supplement of paper PMC12764529.

Assay: folding stability dG unfold (combined trypsin and chymotrypsin); higher = more stable
Procedure: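 Folding stability of de novo designed mini-proteins (<80 aa, no Cys; designed by TrROS, TrMRF, ProteinMPNN and the joint model) was measured by cDNA display proteolysis with trypsin and chymotrypsin. Each protease was used at 11 concentrations in a threefold dilution series plus a no-protease condition. K50 was inferred by Bayesian fitting of sequencing counts, and dG unfold was derived against a sequence-predicted unfolded-state K50 (Tsuboyama et al. method). Sequences shown include variable-length N-terminal GS-type padding (SAGGSAGG...) inside a display construct carrying a PA tag. Rows were kept only if the AF2 dimer inter-PAE was >15, to exclude likely homo-oligomers.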

Row | Sequence | folding stability dG unfold
1 | SAGGSAGGSAGGSGSSVTTVTEEPGRRVVTRFVPETGEEEVLSTEEVPAPPLPLSPALLSAGGSAGGSAGGS [r4_21_JUSTAS] | < -1 kcal/mol
2 | SAGGSAGGSAGGSGVKTRAGSFPDRDYTITEDPVVPGIYTVKFPPEVTVTLPKSEIPPLSAGGSAGGSAGGS [r10_556_JUSTAS] | < -1 kcal/mol
3 | SAGGSAGGSAGGSHTFEFPGRKITIHRNPNGMYPIEIETNGKPREIMIPPNDLDKLLKASAGGSAGGSAGGS [r4_346_TrROS] | < -1 kcal/mol
4 | SAGGSAGGSAGGSKEITFPAREIAEKLGIPPGRPITPEFLNKIKHVETDENGWVTLKLDSAGGSAGGSAGGS [r4_369_TrROS] | < -1 kcal/mol
5 | SAGGSAGGSAGGSKKKFKVKVIEKKPTTFPDGGVLVDYKVEIPETGALFDLKLTYTGEASAGGSAGGSAGGS [r4_94_TrMRF] | < -1 kcal/mol
6 | SAGGSAGGSAGGSMKILYKLKNDNKVITSLEELKKEIESGKKVTIEEVKEIEESPDVPLSAGGSAGGSAGGS [r4_479_JUSTAS] | < -1 kcal/mol
7 | SAGGSAGGSAGGSMKIYVTSPEEAKKEKEKILEELKKTNIPPKVKVEVKVIPKSEIPLESAGGSAGGSAGGS [r4_472_JUSTAS] | < -1 kcal/mol
8 | SAGGSAGGSAGGSMLLTSQLLREFPNGEVRLETEVVELELPDEPLPLPKPKPRRDPEGRLVSAGGSAGGSAG [r3_252_JUSTAS] | < -1 kcal/mol
9 | SAGGSAGGSAGGSMTVTVEPVPNSDKLRVTTTTTFLNPSNGQVTSTSTSTTVVPPGVAPSAGGSAGGSAGGS [r10_86_JUSTAS] | < -1 kcal/mol
10 | SAGGSAGGSAGGSMVVPASEVEEYVERRKRETGDRFEVTPIPEEGVTPVRLEPADPALESAGGSAGGSAGGS [r4_419_JUSTAS] | < -1 kcal/mol
11 | SAGGSAGGSAGGSNIPTDETVEKVVKIGPKPVTVTITAEPGKLLAKFPKEKKTVPISSLLSAGGSAGGSAGG [r7_37_JUSTAS] | < -1 kcal/mol
12 | SAGGSAGGSAGGSPPSLDYSVRTITTTVEETTFFPDNGTVRSRPVHVTTVVFEPLDSVESAGGSAGGSAGGS [r10_133_JUSTAS] | < -1 kcal/mol
13 | SAGGSAGGSAGGSPQIKVEYERNGGYYPVKISIPNGRKVEIPNMPVENAEKMAKEFLKKSAGGSAGGSAGGS [r4_383_TrROS] | < -1 kcal/mol
14 | SAGGSAGGSAGGSSAQIPFPDDGAWIMIDWDPEGRPKVKVHNPDNGEEIEFPPGAPIKISAGGSAGGSAGGS [r4_158_TrROS] | < -1 kcal/mol
15 | SAGGSAGGSAGGSSVEEEFLAYAKANPEPAPFEFEGPDEKVLLYFPPGGEIDPVSIELKSAGGSAGGSAGGS [r4_438_JUSTAS] | < -1 kcal/mol
16 | SAGGSAGGSAGGVVELPELPPGDDAEVTEVRTPSPGPVELVLRPPHSDETTTRTLSPERLSAGGSAGGSAGG [r7_342_JUSTAS] | < -1 kcal/mol
17 | SAGGSAGGSAGGWYRIKWPNGHEYPVKVDEIDPDGNIKVEPPNDEEHKFPADGMKIEPLPSAGGSAGGSAGG [r7_823_TrROS] | < -1 kcal/mol
18 | SAGGSAGGSAGKITIKPEGQDGNGMYYEIRLPDNGKTIQVPFPSPEDADRRAKKILKELFSAGGSAGGSAGG [r11_848_TrROS] | < -1 kcal/mol
19 | SAGGSAGGSAGKMVEVRIEVDVPDADGRPVRVTFTAPLPLHPDGRIDVPAGRVRRVEVRGSAGGSAGGSAGG [r11_664_TrMRF] | < -1 kcal/mol

Row | Sequence | folding stability dG unfold
20 | SAGGSAGGSAGKNGQPEKVEPQPKIKIRVEDNGKEFETPEQAEELKDELAKKGYKIKVERSAGGSAGGSAGG [r17_289_TrROS] | < -1 kcal/mol
21 | SAGGSAGGSAGKPYRIKIEFYPPGNGQPMEHTFPVKSPEEAVNNLEKSFPNYQIRVDVVESAGGSAGGSAGG [r17_428_TrROS] | < -1 kcal/mol
22 | SAGGSAGGSAGMEIKPVKVKAIDPENPKPVAEFEVEVLPDKIIIPKEFAEKVPEDHVEVESAGGSAGGSAGG [r11_725_TrMRF] | < -1 kcal/mol
23 | SAGGSAGGSAGMEIKYVPEEGLIEVVEKTPKKLPLYSPRYGLEYETKVTTIPPGELDKPLSAGGSAGGSAGG [r11_531_JUSTAS] | < -1 kcal/mol
24 | SAGGSAGGSAGMIVRPVTVTIIDPTNSTPVKTFEALELPDELVIPEEVAKQFSPENVLVRSAGGSAGGSAGG [r11_725_JUSTAS] | < -1 kcal/mol
25 | SAGGSAGGSAGMKIKLPNIPGAEVEIEKDPEVPDLYKIKIKNKETKEEIEITLPKEALKPSAGGSAGGSAGG [r17_341_TrROS_Hall] | < -1 kcal/mol
26 | SAGGSAGGSAGMKVEPKEDPVVDKSGKPKPITKIYVYVPEPLREEALKEAEENGEEVVLESAGGSAGGSAGG [r17_114_JUSTAS] | < -1 kcal/mol
27 | SAGGSAGGSAGMKVREITGPPDDAKELLDENPDGITSIAIEPHPKNGQYRITFFDQGPPKSAGGSAGGSAGG [r17_79_TrROS] | < -1 kcal/mol
28 | SAGGSAGGSAGMPVTESTVTTPTGGLRVTYFPGTNLIELLPVEDGEPRPRLFNSEEALERLSAGGSAGGSAG [r3_426_JUSTAS] | < -1 kcal/mol
29 | SAGGSAGGSAGMSTTIEITDPNLSKEEIKKRIREELGPDVKVTSITEETPDTLKATIVKKSAGGSAGGSAGG [r11_580_JUSTAS] | < -1 kcal/mol
30 | SAGGSAGGSAGMTLEELQKEGYKVEVIRYPDSPHWYVEIEYPDPDGKKKERTIPVDDIKPSAGGSAGGSAGG [r17_311_TrROS] | < -1 kcal/mol
31 | SAGGSAGGSAGMTVKEFTTEEEAKEAIEKAPKDVPLLLILKKPESEEEKVILYTGDKVIEEESAGGSAGGSA [r18_407_JUSTAS] | < -1 kcal/mol
32 | SAGGSAGGSAGMVTTSETITVTVTLPTGPTETITVPVTTTVPVVPVSPEVAAADPAAVAALLSAGGSAGGSA [r18_114_JUSTAS] | < -1 kcal/mol
33 | SAGGSAGGSAGNEVRVDPDTNLLLVELSNGGRARVLLNEGVIYIEPEGTTFEDIEIEPAASAGGSAGGSAGG [r17_174_TrMRF] | < -1 kcal/mol
34 | SAGGSAGGSAGNKPIMIKAEFPGNGREVEFPIRSPEQAKEFAKRLANQPGFPIKDVDIYPSAGGSAGGSAGG [r11_951_TrROS] | < -1 kcal/mol
35 | SAGGSAGGSAGNMEPVPTFELPHDDGRPFTIEVYKDPPMIRVEFPGKPRTMPAEEIKKLISAGGSAGGSAGG [r11_370_TrROS] | < -1 kcal/mol
36 | SAGGSAGGSAGPESRTITLEDPGSLEEAIERALATLPPDTTVTVTFGDEPVELNAATLRALSAGGSAGGSAG [r3_50_JUSTAS] | < -1 kcal/mol
37 | SAGGSAGGSAGPKPVLLTIEVEAKPDEAEAVAKEIYEKEFPEAKDVTVETFPEKGTFRVTFGSAGGSAGGSA [r18_390_TrMRF] | < -1 kcal/mol
38 | SAGGSAGGSAGPNDKWKMEMEIEHSIPIEPGDTVRSPDTGEPIKPGKQVSIFRMYMEPAPSAGGSAGGSAGG [r11_793_TrROS] | < -1 kcal/mol

Row | Sequence | folding stability dG unfold
39 | SAGGSAGGSAGPPERTLSAIIAPNGEILNPIPVPEGAKVTVEPIPETGYYVATVTVPADVSAGGSAGGSAGG [r11_32_TrMRF] | < -1 kcal/mol
40 | SAGGSAGGSAGRLPPGMKIRIWHRRDGKPRRREFEIPPGMPSIEDAAKEHPPIESVKIERSAGGSAGGSAGG [r11_157_TrROS] | < -1 kcal/mol
41 | SAGGSAGGSAGSTVKITVKGKTITVPKGAKVKLKNGKTFKAGESLESLSPEEIVKVEKVPSAGGSAGGSAGG [r17_511_TrROS_Hall] | < -1 kcal/mol
42 | SAGGSAGGSAGTTLLETEELPGPVRVTVERYKLPDGTLRVRTTEIDPSTGARHPREELVESAGGSAGGSAGG [r11_727_JUSTAS] | < -1 kcal/mol
43 | SAGGSAGGSAGVIPFDSPEDAERAIEEAFRNGDPVTIHRRNPDGKHQTIPFKIKLPKNDPSAGGSAGGSAGG [r17_462_TrROS] | < -1 kcal/mol
44 | SAGGSAGGSAGVTDPNSSKPVPSSYVVVTVRGPEKESYYRVPPSEAAAFAAARGVEVILESAGGSAGGSAGG [r17_109_JUSTAS] | < -1 kcal/mol
45 | SAGGSAGGSAKKIEIEPMPNGWTVRIKGNDGKKREIPIPNPNQSISDIAKRAEDNGIDDVEISAGGSAGGSA [r18_83_TrROS] | < -1 kcal/mol
46 | SAGGSAGGSALKINKLLKEGYEVEVTPPDGKKYVLKKGDSAKKPKEKFNLPENAKIKIKPLSAGGSAGGSAG [r3_216_TrMRF] | < -1 kcal/mol
47 | SAGGSAGGSAMEEYEIRVPDKPITIHRSPDGNYSLQYFDNKKTETIPADDLDDLPPGDLFRSAGGSAGGSAG [r3_256_TrROS] | < -1 kcal/mol
48 | SAGGSAGGSAMWVRDIADELRKEGKPVKIEMRNPNGKEKEYTIKPGEPLPPGWDIEKIEYKSAGGSAGGSAG [r3_421_TrROS] | < -1 kcal/mol
49 | SAGGSAGGSANKDDKKKEQRKQRVESKLPIYDPGNGKPWDIEVTGPVDDPEDAVDWLLDWFSAGGSAGGSAG [r3_271_TrROS] | < -1 kcal/mol
50 | SAGGSAGGSANPMPVRFQIEWKNPKDGKKQKIPITGTIPDGNGKKHSINELLKNLPGFKIKPSAGGSAGGSA [r18_267_TrROS] | < -1 kcal/mol
51 | SAGGSAGGSANVEVHPNPDGHVMVKIEMRMYRYDPDGKPKGPVEIKRSIHVDSPEEAKEFFSAGGSAGGSAG [r3_232_TrROS] | < -1 kcal/mol
52 | SAGGSAGGSAPGQKFPIKEVYWNDGRLAIKVEDNGEEQIIPVGAKIEDDDDGEIKIKLLPPPSAGGSAGGSA [r18_468_TrROS] | < -1 kcal/mol
53 | SAGGSAGGSAPLVENPVPLYVPEEEAVPLAEEIRKKLTKGGLKKIVFEVVPPEEAGIPPDEPLSAGGSAGGS [r12_93_JUSTAS] | < -1 kcal/mol
54 | SAGGSAGGSAPNQRREVPFYIYFPDDGKMFPFKQEKDPDPPKLKLKLPPEDFPPIEIMPGGSAGGSAGGSAG [r3_454_TrROS] | < -1 kcal/mol
55 | SAGGSAGGSARVTVTPLPDDRVAVSVERTLYRRDADGNPLGPVRIQASVVVDSLEDAAELASAGGSAGGSAG [r3_232_TrMRF] | < -1 kcal/mol
56 | SAGGSAGGSASPVQRILARLPSGEPFEAVYDPSTGTIDVLGEGKPSTIPAGTPVEVLEVRLESAGGSAGGSA [r18_144_JUSTAS] | < -1 kcal/mol
57 | SAGGSAGGSAVIVIPASVVEEKKEKIELKLEDETEYEVEVTTEKVGDEPIAVLKLIPKNIPSSAGGSAGGSA [r18_447_JUSTAS] | < -1 kcal/mol
